Laboratory results taken from patent US20060240053A1 (L OREAL, published 2006).

Target: the molecule itself
Assay: BS3 chemical crosslinking, then gel filtration and SDS-PAGE (self-association)
Procedure: A study of the crosslinking using BS3 (Pierce) is carried out on activated SASPase (SEQ ID NO: 6), obtained by acidification and purification by exclusion chromatography (gel filtration) of the recombinant fusion protein GST-SASPase Δ1-84.
1 μg of BS3 in 60 μl of 50 mM phosphate buffer, pH 7, containing 150 mM NaCl, 0.1% TX100 and 5 mM EDTA is added to the activated SASPase (SEQ ID NO: 6) obtained in example III, placed in ice. A control sample free of BS3 is also prepared. After 90 min, 2 μl of 1 M Tris-HCl, pH 8, are introduced into the reaction media in order to stop the reaction. The products obtained are then analyzed by gel filtration and by SDS-PAGE electrophoresis.

B1: activated SASPase (SEQ ID NO: 6) (enzyme)
chain: ANSMGKGYYLKGKIGKVPVRFLVDSGAQVSVVHPNLWEEVTDGDLDTLQPFENVVKVANGAEMKILGVWDTAVSLGKLKLKAQFLVANASAEEAIIGTDVLQDHNAILDFEHRTCTLKGKKFRLLPVGGSLEDEFDLE
notes: also called 12 kD SASPase
Q: Does B1 bind?
A: binds
